From PMC4789106 (Biochemistry, 2015) come the findings set out here.

First the molecules themselves.
B1: Y571-R588 peptide of TGFBIp (peptide, UniProt Q15582 571-588, looked up)
peptide: YHIGDEILVSGGIGALVR
B4: Recombinant WT TGFBIp (natural protein, human, UniProt Q15582 24-683, looked up)
chain: GPAKSPYQLVLQHSRLRGRQHGPNVCAVQKVIGTNRKYFTNCKQWYQRKICGKSTVISYECCPGYEKVPGEKGCPAALPLSNLYETLGVVGSTTTQLYTDRTEKLRPEMEGPGSFTIFAPSNEAWASLPAEVLDSLVSNVNIELLNALRYHMVGRRVLTDELKHGMTLTSMYQNSNIQIHHYPNGIVTVNCARLLKADHHATNGVVHLIDKVISTITNNIQQIIEIEDTFETLRAAVAASGLNTMLEGNGQYTLLAPTNEAFEKIPSETLNRILGDPEALRDLLNNHILKSAMCAEAIVAGLSVETLEGTTLEVGCSGDMLTINGKAIISNKDILATNGVIHYIDELLIPDSAKTLFELAAESDVSTAIDLFRQAGLGNHLSGSERLTLLAPLNSVFKDGTPPIDAHTRNLLRNHIIKDQLASKYLYHGQTLETLGGKKLRVFVYRNSLCIENSCIAAHDKRGRYGTLFTMDRVLTPPMGTVMDVLKGDNRFSMLVAAIQSAGLTETLNREGVYTVFAPTNEAFRALPPRERSRLLGDAKELANILKYHIGDEILVSGGIGALVRLKSLQGDKLEVSLKNNVVSVNKEPVAEPDIMATNGVVHVITNVLQPPANRPQERGDELADSALEIFKQASAFSRASQRSVRLAPVYQKLLERMKH

Read-outs that look alike come from different tables or passages of the source.

The series “Recombinant WT TGFBIp” deals with B4. The series is described as follows: pull-down.
Series [1] deals with the molecule itself. The series is described as follows: ThT fluorescence fibrillation assay + TEM.
Series [2] deals with the molecule itself. Kind of series: centrifugation and limited trypsin proteolysis of fibrils.
Series [3] concerns the target B1. The series is described as follows: pull-down.
Series [4] has as its target B1. The series is described as follows: pull-down.

Consider FSMLVAAIQSAGLTETLNR (peptide, UniProt Q15582 515-533, looked up) [F515-R533 peptide of TGFBIp], for which the binding result (in the series with Recombinant WT TGFBIp; in series [1]) was “binds” each time.
Take B1: the binding result in series [1] was “binds”.

B2: A546T FAS1-4 (fourth fasciclin 1 domain of TGFBIp with the A546T substitution) (domain or fragment, human)
chain: AGMGTVMDVLKGDNRFSMLVAAIQSAGLTETLNREGVYTVFAPTNETFRALPPRERSRLLGDAKELANILKYHIGDEILVSGGIGALVRLKSLQGDKLEVSLKNNVVSVNKEPVAEPDIMATNGVVHVITNVLQPPANRPQERGDELADSALEIFKQA
On to B2, for which the binding result (in series [2]; with Recombinant WT TGFBIp) was “binds” each time.

B3: Transforming growth factor beta-induced protein (TGFBIp) from human corneal stroma extract (natural protein, human (endogenous in corneal stroma), UniProt Q15582 24-683, looked up)
chain: GPAKSPYQLVLQHSRLRGRQHGPNVCAVQKVIGTNRKYFTNCKQWYQRKICGKSTVISYECCPGYEKVPGEKGCPAALPLSNLYETLGVVGSTTTQLYTDRTEKLRPEMEGPGSFTIFAPSNEAWASLPAEVLDSLVSNVNIELLNALRYHMVGRRVLTDELKHGMTLTSMYQNSNIQIHHYPNGIVTVNCARLLKADHHATNGVVHLIDKVISTITNNIQQIIEIEDTFETLRAAVAASGLNTMLEGNGQYTLLAPTNEAFEKIPSETLNRILGDPEALRDLLNNHILKSAMCAEAIVAGLSVETLEGTTLEVGCSGDMLTINGKAIISNKDILATNGVIHYIDELLIPDSAKTLFELAAESDVSTAIDLFRQAGLGNHLSGSERLTLLAPLNSVFKDGTPPIDAHTRNLLRNHIIKDQLASKYLYHGQTLETLGGKKLRVFVYRNSLCIENSCIAAHDKRGRYGTLFTMDRVLTPPMGTVMDVLKGDNRFSMLVAAIQSAGLTETLNREGVYTVFAPTNEAFRALPPRERSRLLGDAKELANILKYHIGDEILVSGGIGALVRLKSLQGDKLEVSLKNNVVSVNKEPVAEPDIMATNGVVHVITNVLQPPANRPQERGDELADSALEIFKQASAFSRASQRSVRLAPVYQKLLERMKH
On to B3, for which, in series [3], the “amount of TGFBIp bound, fold against F515-R533 fibrils” value is around 3 times.
As to B4, the “amount of TGFBIp bound, fold against F515-R533 fibrils” value in series [4] was around 1.6 times.
